Experimental data: patent publication US20240294624A1, “ANTI-ERYTHROPOIETIN ANTIBODY” (ANDREMACON S.R.L., priority 2021, published 2024)

Assays:
[1] = tested on: primary GSCs; test: MTT cell viability assay; assay type: cell-based, human; settings: 96 hours, anti-EPO (C4) 6 μg/ml, TMZ 100 μM, FTY720 100 nM
Excerpt: A. Primary glioblastoma cancer stem cells (GCSc).

[2] = tested on: GBM-CSC cell line; test: MTT cell viability assay; assay type: cell-based, human; settings: 96 hours, anti-EPO (C4) 6 μg/ml, TMZ 100 μM, FTY720 100 nM
Method: C. Glioblastoma cancer stem cell commercial line (Glioblastoma stem cell line, GBM-CSCs). Anti-EPO treatments were performed on GBM-CSCs, a commercial glioblastoma cancer cell line by CelProgen. As reported in the datasheet, GBM-CSCs have been isolated from human brain cancer tissue. GBM-CSCs were maintained in Celprogen's human glioblastoma cancer stem cell (GBM) complete growth medium and subcultured every 24 to 48 hours on a specific extra-cellular matrix.

[3] = tested on: A2780; test: MTT cell viability assay; assay type: cell-based, human; settings: 96 hours, 6 μg/ml
Excerpt: I. Ovarian cancer cell line (A2780); ovarian cancer cells used in toxicity testing, drug screening and genetic cancer studies.

[4] = tested on: GBM-ECs; test: Tube formation assay on Matrigel; assay type: cell-based, human; settings: 48 h
Method: GBM-ECs (1×10^4) were plated on 10 μL of Matrigel in BM, as a Control Condition (CTR, FIG. 8A) or in media containing the anti-EPO (C4) (FIG. 8B), TMZ (FIG. 8C), FTY720 (FIG. 8D), and anti-EPO (C4)+TMZ+FTY720 (FIG. 8E) treatments, as reported above. GBM-ECs were incubated at 37° C., 5% C02, 5% 02. After 48 h, tube-like structure formation was evaluated by phase-contrast microscopy.

[5] = tested on: N9 microglia cells; test: Microglia viability, trypan blue; assay type: cell-based, murine; settings: 48 hours of culture
Method: N9 cells were cultured in Iscove's Modified Dulbecco's MEM, IMDM containing streptomycin/1× penicillin and 2 mM L-glutamine, supplemented with FBS (fetal bovine serum) at 5%. The cells were plated at a concentration of 1.5×10^4 cells/cm2 and kept in a thermostatic incubator at 37° C., with 5% CO2, for 24 hours. The next day, the cells were exposed to different treatments for 48 hours. At the end of the treatments, cell viability was assessed by staining with trypan blue. The microglia was maintained in a basal culture medium and then activated with lipopolysaccharide (LPS), a molecule present on the membrane of the Gram-negative bacteria. Furthermore, to study the role of the product “anti-EPO (C4)” in the inhibition of neuroinflammation and then in the inhibition of the activation of microglia, the antibody according to the scheme below was administered, in association and not with LPS, to activate microglia. […]
N9 cells were cultured in Iscove's Modified Dulbecco's MEM, IMDM containing streptomycin/1× penicillin and 2 mM L-glutamine, supplemented with FBS (fetal bovine serum) at 5%. […] At the end of the treatments, cell viability and proliferation were assessed by staining with trypan blue and observed under the microscope for counting. […]

[6] = tested on: S1PR1; test: S1PR1 expression by immunofluorescence; assay type: cell-based, human; settings: S-ECs of pathological synovium
Method: ECs (1×10^4/well) were seeded into μ-Slide 8 Well, ibiTreat (Ibidi, Martinsried, Germany) collagen-coated. When cells reached the desired confluence, were fixed in paraformaldehyde 4% for 20 min at RT, washed twice with D-PBS and incubated with 0.1 M glycine to quench auto-fluorescence. Then, the coverslip was incubated with PBS+0.25% Triton ×100 to permeabilize cell membranes and then blocked in PBS+5% BSA for 30 min at RT. Incubation with anti-S1 PR1 primary antibody diluted in blocking buffer was performed overnight at 4° C. The following day, primary antibody was removed and fluorescent secondary antibody labelling was then added for 45 min at RT, protected from light, washed and finally, the coverlips were mounted with ProLong Gold Antifade Mountant (ThermoFisher). Immunolabeling was acquired using an inverted DM14 microscope equipped with DFC350×CCDcamera and LAS-X software (all from Leica Microsystems, Wetzlar, Germany). […] S1 PR1 levels are increased in pro-tumoral and pro-angiogenic conditions, when intracellular and extracellular levels of S1 P are presented. It is possible therefore to hypothesize the use of the anti-EPO (C4) antibody, such as in direct intra-articular treatment in the form of gel or suspension, in association or not with “coagulation factors and their derivatives” and also comprising FTY720 and negative modulators of the sphingosine-1-phosphate pathway.

[7] = Renal and liver toxicity, serum biochemistry; assay type: in vivo; settings: mice; 11 and 18 days after treatment starting
Method: Serum for Biochemistry were collected at least 400 μL of blood and putted it in an eppendorf tube with or without (plasma/serum) anticoagulant. The samples were left at environment temperature for at least 30′ minutes, then centrifuged at 500 g for 10 min, the supernatants were collected, being careful not to take the precipitate and analyzed for Biochemical tests. […] (A) Urea; (B) Creatinine; (C) Albumine, (D) AST; aspartate aminotransferase; (E) ALT: alanine aminotransferase. (FIG. 29)

B1: anti-EPO (C4): isolated anti-Erythropoietin monoclonal antibody, VL SEQ ID NO:6, VH SEQ ID NO:14, hybridoma DSM ACC 3370 (antibody, listed as Homo sapiens, V domains shown)
VH: EVKLQESGGGLVQPGGSLKLSCAASGFTFSTYTMSWVRQTPEKRLEWVAYISNGGDRTYYPDTVKGRFTISRDDAKNTLFLQMSSLKSEDTAMYYCARHNITTVPFTMDYWGQGTSVTVSS
VL: DIVLTQSPASLAVSLGQRATISCRASESVDYYGTGLMQWYQQRPGQPPKLLIYGASNVGSGVPARFSGSGSGTDFSLNIHPVEGDDIAMYFCQQTRKVPSTFGGGTKLEIK
modifications: VH amino acid sequence; VL amino acid sequence
cells initially seeded dead [1]: about 73% | cells initially seeded dead [2]: ~79% | cells initially plated dead [3]: 63% | decrease of total length of formed tubes [4]: 70% | formation of tubular-like structures ([4]; phase-contrast microscopy): able to block the formation of tubular-like structures | viability [5]: higher than 85% | S1PR1 expression levels [6]: decreased expression levels of S1 PR1 | serum biochemistry (urea, creatinine, albumine, AST, ALT) [7]: no significant variations
